Laboratory results reported in article PMC10868440, “Structural characterization of the Sel1‐like repeat protein LceB from Legionella pneumophila” (Protein Science : A Publication of the Protein Society, 2024).
Values joined by “and” are separate entries in the source; they are usually repeats but may differ in a detail not shown here. Equal entries are not always repeated.

B1: 6His-LceB (22-366) (domain or fragment)
chain: VGFAAFENGDYTTAYPHLMQAAKEGNEEAMYLLGRMYQYGYGVTTNYEEARNWYQKAADKNNALAQLSLGFMYDTGKGVSQDFTEAFKWYMKAAEQGNPIAQRNIGLMYATGDGVAASDDKAFNWFKKAAEQGYSKAQVNLGYQYMMGKGTPKDVKKAFEWYQKAAEQGDEKGEYSLGLLYTGQEGGIGADDKAAFYWFSQAANHGHVNAQTYLAYYYLKGYGVDADPVKAAYWYQSAAEKGQPEAQAQLGQLLLTGTGVDKDYQQAAYWFGKSAHQGNPIGQAKLGYMYLAGLGVNKSLVKAYAWLKIAAENKNEEAAKQLKSLEAKLTEPEKLEAEKMIKDLG
notes: also called Lpg1356; truncated LceB crystallization construct; not shown: His6, N-terminal, kept
B2: LceB no HT (22-366) (domain or fragment)
chain: B1 chain
notes: also called LceB no His-tag; digested LceB

Tests used:
[1] = molecular target: full-length 6His-LceB (Legionella pneumophila Philadelphia-1) (UniProt Q5ZVT4); experiment: mass photometry
[2] = molecular target: the molecule itself; experiment: mass photometry

Molecule	stoichiometry N [1]	stoichiometry N [2]
full-length 6His-LceB (from UniProt Q5ZVT4 1-376) (natural protein)	3 and 5	
B1		2
B2		2
